Experimental data as given in patent US20120328616A1 (Amgen, published 2012).
Numbering of substitutions follows the chain as printed.

T1: huBeta_Klotho (1-81, 523-1044) (muBetaKLOTHO 82-520) (human; murine, UniProt Q86Z14 1-1044)
T1 construct: Expressed on HEK-293T cells; also called Chimera 1; Construct 1
T1 chain: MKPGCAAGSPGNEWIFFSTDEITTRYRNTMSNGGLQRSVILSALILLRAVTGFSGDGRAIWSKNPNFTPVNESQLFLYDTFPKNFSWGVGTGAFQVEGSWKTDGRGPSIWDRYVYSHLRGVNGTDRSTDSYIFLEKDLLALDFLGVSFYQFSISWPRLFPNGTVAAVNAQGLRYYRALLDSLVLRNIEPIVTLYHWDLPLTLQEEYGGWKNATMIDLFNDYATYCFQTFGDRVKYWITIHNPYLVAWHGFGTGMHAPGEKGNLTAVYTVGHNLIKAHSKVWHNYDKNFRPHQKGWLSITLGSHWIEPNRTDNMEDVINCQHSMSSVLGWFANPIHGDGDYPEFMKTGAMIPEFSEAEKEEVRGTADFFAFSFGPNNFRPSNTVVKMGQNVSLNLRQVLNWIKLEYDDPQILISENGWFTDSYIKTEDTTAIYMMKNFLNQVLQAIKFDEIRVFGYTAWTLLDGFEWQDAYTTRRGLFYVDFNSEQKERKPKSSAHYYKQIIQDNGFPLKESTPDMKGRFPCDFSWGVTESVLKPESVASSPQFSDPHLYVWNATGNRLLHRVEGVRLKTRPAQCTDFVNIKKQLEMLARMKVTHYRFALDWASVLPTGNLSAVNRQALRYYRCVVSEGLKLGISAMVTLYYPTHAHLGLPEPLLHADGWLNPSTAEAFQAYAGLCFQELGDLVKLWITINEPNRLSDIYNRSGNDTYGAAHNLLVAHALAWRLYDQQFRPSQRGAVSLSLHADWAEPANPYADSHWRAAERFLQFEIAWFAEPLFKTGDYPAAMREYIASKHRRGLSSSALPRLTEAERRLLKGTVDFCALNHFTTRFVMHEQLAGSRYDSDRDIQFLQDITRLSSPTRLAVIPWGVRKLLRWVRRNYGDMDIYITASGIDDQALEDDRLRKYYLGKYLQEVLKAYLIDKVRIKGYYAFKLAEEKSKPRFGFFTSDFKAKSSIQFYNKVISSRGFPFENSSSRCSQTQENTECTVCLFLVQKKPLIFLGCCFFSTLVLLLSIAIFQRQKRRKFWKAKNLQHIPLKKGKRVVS

B1: 49G3.3 (antibody, V domains shown)
VH: QVTLKESGPVLVKPTETLTLTCTVSGFSLSNPRMGVSWIRQPPGKALEWLTHIFSNDEKSYSTSLKSRLTISKDTSKSQVVLSMTNMDPVDTATYYCVRVDTLNYHYYGMDVWGQGTTVTVSS
VL: DIQMTQSPSSLSASIGDRVTITCQASQGISNYLNWYQQKPGKAPKLLIYDASNLETGVPSRFSGSGSGTDFTFTISSLQPEDIATYYCHQYDDLPLTFGGGTKVEIRR
B2: 51E5.1 (antibody, V domains shown)
VH: QVQLQQWGAGLLKPSETLSLTCAVYGGSFSGYYWSWIRQPPGKGLEWIGELDHSGSINYNPSLKSRVTISVDTSKNQFSLKLTSVTAADTAVYYCARVLGSTLDYWGQGTLVTVSS
VL: DIQMTQSPSSLSASVGDRVTITCRASQDIRNDLGWYQQKPGKAPNRLIYAASSLQFGVPSRFSGSGSGTEFTLTISSLQPEDFATYYCLQHSSYPLTFGGGTRVEIKR
B3: 66G2.1 (antibody, V domains shown)
VH: QVQLVESGGGVVQPGRSLRLSCAASGFTFSSYGMHWVRQAPGKGLEWVAGISYDGSNKNYADSVKGRITISRDNPKNTLYLQMNSLRAEDTAVYYCATTVTKEDYYYYGMDVWGQGTTVTVSS
VL: B2 VL with D28G, N45K, S53N, F56S, E70K, S76N, H91L, S92N, S93G, R103K
B4: 65C3.1 (antibody, V domains shown)
VH: QVQLQESGPGLVKPSETLSLTCTVSGGSISSYYWSWIRQPPGKGLEWIGYIYYTGSTNYNPSLKSRVTISVDTSKNQFSLKLSSVTAADTAVYYCAREYYYGSGSYYPWGQGTLVTVSS
VL: EMVMTQSPATLSVSPGERATLSCRASQSVSSQLAWYQEKPGRAPRLLIYGASNRAIDIPARLSGSGSGTEFTLTISSLQSEDFAVYYCQQYNNWPWTFGQGTKVEFKR
B5: 67F5.1 (antibody, V domains shown)
VH: B4 VH with Q5K, T54S, S56N
VL: EIVMTQSPATLSVSPGERVTLSCRASQSVSSNLAWYQQKPGQAPRLLIHGSSNRAIGIPARFSGSGSGTEFTLTISSLQSADFAVYNCQQYEIWPWTFGQGTKVEIKR
B6: 67C10.1 (antibody, V domains shown)
VH: EVQLVQSGAEVKKPGESLKISCQGSGYSFSSYWIGWVRQMPGKGLEWMGIIYPGDSDTRYSPSFQGQVTISADKSINTAYLQWSSLKASDTAIYYCARRASRGYRYGLAFAIWGQGTMVTVSS
VL: DFVMTQTPLSLPVTPGEPASISCRSSQSLLNSDDGNTYLDWYLQKPGQSPQLLIYTLSYRASGVPDRFSGSGSGTDFTLKISRVEAEDVGVYYCMQRIEFPITFGQGTRLEIKR

Experiments:
[1] = target: T2, huBeta_Klotho (194-1044) (muBetaKLOTHO 1-L193) (murine; human, UniProt Q86Z14 1-1044); experiment: flow cytometry, transfected HEK-293T
T2 construct: also called Chimera 3; Construct 3

[2] = target: T1, huBeta_Klotho (1-81, 523-1044) …; experiment: flow cytometry, transfected HEK-293T
[3] = target: T3, huBeta_Klotho (1-193, 419-1044) (muBetaKLOTHO Y194-416G) (human; murine, UniProt Q86Z14 1-1044); experiment: flow cytometry, transfected HEK-293T
T3 construct: also called Chimera 5; Construct 5

[4] = target: T4, huBeta_Klotho (1-633, 852-1044) (muBeta KLOTHO 632G-849Q) (human; murine, UniProt Q86Z14 1-1044); experiment: flow cytometry, transfected HEK-293T
T4 construct: also called Chimera 10; Construct 10

[5] = target: T5, human FGFR1c (human, UniProt P11362 22-822); experiment: flow cytometry, transfected HEK293T; mock-transfected cells 648
T5 construct: Full length (GenBank NP-075598), expressed on transfected 293T cells; also called huFGFR1c; FGFR1c alone

[6] = target: T6, cynomologous monkey FGFR1c/cynomologous monkey β-Klotho (co-transfected) (cynomologous monkey); experiment: as above
T6 construct: whole, on cells; also called Cyno FGFR1c/Cyno β-Klotho

[7] = target: T5, human FGFR1c; experiment: flow cytometry, transfected HEK293T
[8] = target: T7, human FGFR1c/human β-Klotho complex (FGF21 receptor) (human, UniProt P11362 22-822); experiment: flow cytometry, transfected HEK293T; mock-transfected cells 723
T7 construct: Both full-length proteins co-expressed on cells (HEK293T, CHO, L6); also called HuFGFR1c/Hu β-Klotho; huFGF21R

[9] = target: T5, human FGFR1c; experiment: as above
[10] = target: T6, cynomologous monkey FGFR1c/cynomologous …; experiment: as above
[11] = target: T7, human FGFR1c/human β-Klotho complex …; experiment: flow cytometry, transfected HEK293T; mock-transfected cells 705
[12] = target: T5, human FGFR1c; experiment: as above
[13] = target: T6, cynomologous monkey FGFR1c/cynomologous …; experiment: as above
[14] = target: T7, human FGFR1c/human β-Klotho complex …; experiment: flow cytometry, transfected HEK293T; mock-transfected cells 632
[15] = target: T5, human FGFR1c; experiment: as above
[16] = target: T6, cynomologous monkey FGFR1c/cynomologous …; experiment: as above
[17] = target: T7, human FGFR1c/human β-Klotho complex …; experiment: flow cytometry, transfected HEK293T; mock-transfected cells 688
[18] = target: T5, human FGFR1c; experiment: as above
[19] = target: T6, cynomologous monkey FGFR1c/cynomologous …; experiment: as above

Binder | binding result [1] | binding result [2] | binding result [3] | binding result [4] | GeoMean [5] | GeoMean [6] | binding result [7] | GeoMean [8] | GeoMean [9] | GeoMean [10] | GeoMean [11] | GeoMean [12] | GeoMean [13] | GeoMean [14] | GeoMean [15] | GeoMean [16] | GeoMean [17] | GeoMean [18] | GeoMean [19]
B1 | no binding | no binding | no binding | binds | 706 | 25900 | no binding |  |  |  |  |  |  |  |  |  |  |  | 
B2 | binds | binds | binds | no binding |  |  | no binding | 21000 | 747 | 36500 |  |  |  |  |  |  |  |  | 
B3 | binds | binds | binds | no binding |  |  | no binding |  |  |  |  |  |  |  |  |  |  |  | 
B4 | binds | binds | binds | binds |  |  | no binding |  |  |  | 18800 | 719 | 24600 |  |  |  |  |  | 
B5 | binds | binds | binds | no binding |  |  | no binding |  |  |  |  |  |  | 13900 | 757 | 15800 |  |  | 
B6 | binds | binds | binds | no binding |  |  | no binding |  |  |  |  |  |  |  |  |  | 18900 | 780 | 4060
